# Several values for one entry are separate records, joined by “and”; a condition that tells them apart may be missing. Identical values can stand only once.
# Biological target: pVHL172-BirA(R118G)-HA fusion protein (human) (UniProt P40337)
# Experiment: proximity labelling; BioID with truncated VHL-BirA constructs in HeLa and 786-O cells; blots quantified as biotinylated prefoldin / pVHL expression level, full-length VHL213-BirA set as 1 (Fig 1C)
row,fold lower binding than with the exons 2&3 version,Substance
1,4 fold and 5 fold,Prefoldin subunit 1 (from UniProt O60925 1-122) (natural protein)
2,4 fold and 5 fold,Prefoldin subunit 3 (from UniProt P61758-1 1-197) (natural protein)

# Source: publication PMC7660911
